# Test results as given in paper PMC4449314.
# Several values for one entry are separate records, joined by “and”; a condition that tells them apart may be missing. Equal entries are not always repeated.
# Assays:
# [1] = biological target: HA-tagged human DAP12 (full length, both native cysteines), in 293T cells (human), O43914; experiment: non-reducing SDS-PAGE of disulfide-linked products after anti-HA IP; settings: remark: other sources report otherwise
# [2] = biological target: HA-tagged human DAP12 wild type, in vitro translated with ER microsomes (human), O43914; experiment: as above; settings: remark: other sources report otherwise
stoichiometry N [1],stoichiometry N [2],Binder
2 and 3 and 4,,"HA-tagged human DAP12 (full length, both native cysteines), in 293T cells, O43914 22-113 (natural protein) LRPVQAQAQSDCSCSTVSPGVLAGIVMGDLVLTVLIALAVYFLGRLVPRGRGAAEAATRKQRITETESPYQELQGQRSDVYSDLNTQRPYYK"
,3 and 4,"HA-tagged human DAP12 wild type, in vitro translated with ER microsomes, O43914 22-113 (natural protein, here or on the partner: 35S-methionine/cysteine labelled; 35S-methionine/cysteine labelled) LRPVQAQAQSDCSCSTVSPGVLAGIVMGDLVLTVLIALAVYFLGRLVPRGRGAAEAATRKQRITETESPYQELQGQRSDVYSDLNTQRPYYK"
